Columns and labels:
TNF-α = molecular target: T1, TNF-α (Homo sapiens, UniProt P01375); assay: TNF-α activity assay with fibroblast L929 cells (L929 viability assay); assay type: cell-based; conditions: 1 ng/mL TNF-α in 2% serum, compared to IFX and ADA controls, FIG. 2
T1 construct: host or cells: added to murine fibroblast L929 cells
Description: Activity was measured using the TNF-α activity assay with fibroblast L929 cells (Gibco cytotoxicity assay for recombinant proteins).

[1] = pKa / isoelectric point and pH-dependent loading into AP microfiber suspensions; assay type: physicochemical; conditions: FIG. 4
Description: Agent loading level can also be pH and/or charge-dependent and loading of the agent(s) may be controlled and/or optimized based using the pKa and isoelectric (pI) point of the agent. […] Accordingly, agent loading and encapsulation efficiency may be optimized/maximized by loading gel suspensions at a pH above the pKa of the gelator(s) and a pH which is below the isoelectric (pI) point of the agent(s) which are being loaded onto the gel.

[2] = Encapsulation efficiency in self-assembled AP microfibers versus non-assembled AP powder suspension (Coomassie Assay); assay type: physicochemical; conditions: 10 mg/mL AP mixed with equal volume of 2 mg/mL mAb in PBS, 22° C. for 2 hours, FIG. 5
Description: Ascorbyl palmitate (AP) microfiber suspensions were prepared using the self-assembly process described in Example 1 or, alternatively, using a non-assembled AP particulate used as-is from the manufacturer (USP grade ascorbyl palmitate, Sigma-Aldrich). […] After loading/incubation at 22° C. for 2 hours, the suspensions were centrifuged at 20,000×g for 10 minutes at 4° C. The supernatant was then removed and tested for soluble protein via the Coomassie Assay to determine the encapsulation efficiency.

[3] = cited from earlier work
[4] = Time-dependent loading of antibody into ascorbyl palmitate microfibers (HPLC); assay type: physicochemical
Description: The efficiency of antibody (i.e., IFX or ADA) loading into ascorbyl palmitate microfibers was found be time dependent. […] (and following 3 washes with PBS by centrifugation at 5000 rpm for 10 mins at 4° C.). However, by extending the loading/incubation time to 20 hours (2 hours at 22° C., 18 hours at 4° C.), the loading increased to 14% (wt/wt %).

T1 sequence (P01375 77-233 limits assumed): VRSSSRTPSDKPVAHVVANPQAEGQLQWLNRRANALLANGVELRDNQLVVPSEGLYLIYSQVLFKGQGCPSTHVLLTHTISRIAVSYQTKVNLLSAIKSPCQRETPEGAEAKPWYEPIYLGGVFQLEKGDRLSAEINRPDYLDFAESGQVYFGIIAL

adalimumab
activity of mAb released from gels against TNF-α (TNF-α): active against TNF-α | influence of pH on loading and encapsulation efficiency [1]: highest loading and encapsulation efficiencies are observed at a pH above the pKa of AP but below the pI | encapsulation of antibody, self-assembled AP microfiber suspension relative to non-self-assembled AP powder suspension [2]: greater encapsulation

CCCCCCCCCCCCCCCC(=O)OC[C@H](O)[C@H]1OC(=O)C(O)=C1O [AP, ascorbyl palmitate]
pKa [3]: 4.4

infliximab [IFX]
loading ([4]; after 10 minutes of loading/incubation at 22° C., following 3 washes with PBS): 7 % (wt/wt %) | theoretical maximum loading ([4]; calculated from amounts of IFX and AP combined during loading): approximately 16.7 % (wt/wt %) | loading ([4]; loading/incubation time 20 hours (2 hours at 22° C., 18 hours at 4° C.)): 14 % (wt/wt %)
